# Results reported in patent US20190256588A1 (BEIJING HANMI PHARM, published 2019).
# T1: recombinant human IL-17C (human, UniProt Q9P0M4 19-197)
# T1 sequence (looked up): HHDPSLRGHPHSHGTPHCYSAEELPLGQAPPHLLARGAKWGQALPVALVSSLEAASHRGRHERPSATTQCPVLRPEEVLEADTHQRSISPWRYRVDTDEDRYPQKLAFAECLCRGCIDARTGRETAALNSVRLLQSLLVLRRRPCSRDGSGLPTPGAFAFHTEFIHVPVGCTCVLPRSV
# T2: recombinant rat IL-17A (rat, UniProt Q61453 18-150, limits assumed)
# T2 sequence (looked up): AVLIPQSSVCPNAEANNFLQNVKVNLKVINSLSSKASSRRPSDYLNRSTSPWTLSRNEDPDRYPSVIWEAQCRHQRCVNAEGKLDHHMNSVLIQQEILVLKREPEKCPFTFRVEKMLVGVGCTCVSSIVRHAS
# T3: recombinant mouse IL-17A (mouse, UniProt Q62386 26-158, limits assumed)
# T3 sequence (looked up): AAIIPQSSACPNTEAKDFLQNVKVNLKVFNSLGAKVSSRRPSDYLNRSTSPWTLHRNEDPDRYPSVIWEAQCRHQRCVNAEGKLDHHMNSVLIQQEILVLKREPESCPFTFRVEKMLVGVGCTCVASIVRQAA
# Assays:
# recombinant human IL-17C = target: T1, recombinant human IL-17C; assay: ELISA, cytokine coated on plate at 1 µg/mL
# Protocol: (§1) Recombinant human IL-17A, IL-17B, IL-17C, IL-17D, IL-17E, IL-17F, IL-1, IL-2, IL-6, IL-8, IL-21, IL-22, IL-23, IFN-g and TNFα (purchased from Sino Biological Inc. or R&D systems) were coated on a 96-well high-absorbing ELISA plate with a carbonate buffer solution with pH 9.6, the coating concentration was 1 μg/mL, the coating amount was 100 μL per well, and the coating was carried ax 4° C. out overnight. The plate was washed five times with PBST and blocked with 300 μL/well of PBST containing 1% BSA and incubated at 25° C. for 1 hour. The plate was washed five times with PBST. […] The plate was washed five times with PBST. Then, horseradish peroxidase-labeled anti-human IgG antibody (Chemicon, Catalog Number AP309P) 1:2000 diluted in PBST containing 1% BSA was added, 100 μL was added to each well, incubated at 25° C. for 1 hour. The plate was washed five times with PBST. 100 μL/well of colorimetric substrate TMB was added and incubated at room temperature for 10 minutes. Color development was terminated by adding 100 μL/well of 1 M H₂SO₄. The absorbance at 450 nm was read on a microplate reader.
# (§2) Recombinant human IL-17A, IL-17B, IL-17C, IL-17D, IL-17E, IL-17F, IL-1, IL-2, IL-6, IL-8, IL-21, IL-22, IL-23, IFN-g and TNFα (purchased from Sino Biological Inc. or R&D systems) were coated on a 96-well high-absorbing ELISA plate with a carbonate buffer solution with pH 9.6, the coating concentration was 1 μg/mL, the coating amount was 100 μL per well, and the coating was carried at 4° C. out overnight. Washed five times with PBST. Blocked with 300 μL/well of PBST containing 1% BSA and incubated at 25° C. for 1 hour. Washed five times with PBST.
# recombinant human IL-8 = recombinant human IL-8 (human, UniProt P10145 28-99, limits assumed); assay: ELISA, cytokine coated on plate at 1 µg/mL
# Chain of recombinant human IL-8 (P10145 28-99 limits assumed): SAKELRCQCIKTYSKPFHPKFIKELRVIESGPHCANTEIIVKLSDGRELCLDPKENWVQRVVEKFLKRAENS
# Protocol: as §1, §2
# recombinant human TNFα = recombinant human TNFα (human, UniProt P01375 77-233); assay: ELISA, cytokine coated on plate at 1 µg/mL
# Chain of recombinant human TNFα (P01375 77-233 limits assumed): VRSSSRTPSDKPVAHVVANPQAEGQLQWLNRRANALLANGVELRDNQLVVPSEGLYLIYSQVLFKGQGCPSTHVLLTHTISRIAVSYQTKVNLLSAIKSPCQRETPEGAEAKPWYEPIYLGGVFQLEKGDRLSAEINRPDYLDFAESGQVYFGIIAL
# Protocol: as §1, §2
# recombinant human IL-17A [1] = target: T4, recombinant human IL-17A (human, UniProt Q16552 24-155); assay: SPR, Biacore 3000, human IL-17A coupled to CM5 chip, antibody injected
# T4 construct: also called IL-17A antigen
# T4 sequence (Q16552 24-155 limits assumed): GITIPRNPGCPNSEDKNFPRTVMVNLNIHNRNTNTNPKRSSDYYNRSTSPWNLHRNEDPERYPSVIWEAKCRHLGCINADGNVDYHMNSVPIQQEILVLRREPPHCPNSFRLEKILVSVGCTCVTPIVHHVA
# Protocol: The instrument utilizes an optical surface plasmon resonance technique to detect association and dissociation between a molecule coupled on a sensor chip and an analyte. CM5 chips (GE Healthcare, BR-1000-12) were used. Brief experiment procedure was as follow: human IL-17A was dissolved in sodium acetate buffer (pH 5.0) and coupled to CM chip by injecting at a speed of 10 μL/min. 1 M ethanolamine was injected at a speed of 10 μL/min for blocking. […] 10 mM glycine solution (pH 2.0) was used for regeneration. Association rate constants and dissociation rate constants were analyzed and calculated by Biacore 3000 control software.
# recombinant rat IL-17A = target: T2, recombinant rat IL-17A; assay: ELISA, recombinant rat IL-17A coated on the plate, HRP anti-human IgG, OD450nm
# Protocol: (§3) Recombinant human IL-17A, monkey IL-17A, rat IL-17A and mouse IL-17A (all purchased from Sino Biological Inc.), were coated on a 96-well high-absorbing ELISA plate with a carbonate buffer solution with pH 9.6, the coating concentration was […], the coating amount was 100 μL per well, and the coating was carried out at 4° C. overnight. The plate was washed five times with PBST and blocked with 300 μL/well of PBST containing 1% BSA, and then incubated at 25° C. for 1 hour. The plate was washed five times with PBST. […] The plate was washed five times with PBST. Then, horseradish peroxidase-labeled anti-human IgG antibody (Chemicon, Catalog Number AP309P) 1:2000 diluted in PBST containing 1% BSA was added, 100 μL per well, incubated at 25° C. for 1 hour. The plate was washed five times with PBST. 100 μL/well of colorimetric substrate TMB was added and incubated at room temperature for 10 minutes. Color development was terminated by adding 100 μL/well of 1 M H₂SO₄. The absorbance at 450 nm was read on a microplate reader.
# recombinant human IL-17A [2] = target: T4, recombinant human IL-17A; assay: ELISA, recombinant human IL-17A coated on the plate, HRP anti-human IgG, OD450nm
# Protocol: as §3
# recombinant mouse IL-17A = target: T3, recombinant mouse IL-17A; assay: ELISA, recombinant mouse IL-17A coated on the plate, HRP anti-human IgG, OD450nm
# Protocol: as §3
# [3] = target: recombinant monkey IL-17A (monkey); assay: ELISA, recombinant monkey IL-17A coated on the plate, HRP anti-human IgG, OD450nm
# Protocol: as §3
binder,measurement,setting,value
"anti-human IL-17A chimeric monoclonal antibody (antibody, human IgG1, kappa, V domains shown, expressed in 293F cells; also called Anti-human IL-17A Chimeric Antibody; chimeric anti-human IL-17A monoclonal antibody) VH: DVQVQESGPGLVKPSQSLSLTCTVTGNSITSYYAWNWIRQFPGNKLEWMGYITYSGTTSYNPSLKSRISITRDTSKNQFFLQLNSVTTEDTATYYCAREEYDDIYAVDYWGQGTSVTVSS VL: IIVMTQTPLSLPVSLGDQASISCRSSQSLVHSNGNTYLHWYLQKPGQSPKLLIYKVYNRFSGVPDRFSGSGSGTDFTLKISRVEAEDLGVYFCSQSTHFPTFGGGTKLEIKR",binding result,recombinant human IL-17C,no binding
same,binding result,recombinant human IL-8,no binding
same,binding result,recombinant human TNFα,no binding
same,Kd,recombinant human IL-17A [1],0.03 nM
same,koff,recombinant human IL-17A [1],1.49e-06 s⁻¹
same,kon,recombinant human IL-17A [1],54100 M⁻¹ s⁻¹
same,binding result,recombinant rat IL-17A,no binding (tested: about 20 nM)
same,EC50,recombinant human IL-17A [2],0.07 nM
same,binding result,recombinant mouse IL-17A,no binding (tested: about 20 nM)
same,EC50,[3],0.09 nM
